Test results from the supplement of paper PMC10567573.

B1: TSN (parent)
chain: AFVVYLETETLVTREAVTEILGIE

Variants of: B1
Test: protein stability index of a GFP-peptide fusion (GPS, HEK-293T) (PSI 1-6); higher = more stable
Settings: c terminus: a fixed tail appended
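Also: lentivirally expressed fusions sorted by FACS into six bins by GFP to DsRed ratio, PSI derived from sequencing read proportions per bin multiplied by bin number.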

| Variant | protein stability index |
| --- | --- |
| AFVVYLETETLVTRFAVTEILGIE | 3.13 |
| AFVVYLETETLVTRHAVTEILGIE | 1.85 |
| AFVVYLETETLVTRIAVTEILGIE | 3.25 |
| AFVVYLETETLVTRLAVTEILGIE | 2.17 |
| AFVVYLETETLVTRMAVTEILGIE | 3.51 |
| AFVVYLETETLVTRSAVTEILGIE | 2.65 |
| AFVVYLETETLVTRVAVTEILGIE | 3.11 |
| AFVVYLETETLVTRYAVTEILGIE | 2.25 |
| AFVVYLETETLVTRECVTEILGIE | 3.53 |
| AFVVYLETETLVTREDVTEILGIE | 1.97 |
| AFVVYLETETLVTREEVTEILGIE | 2.77 |
| AFVVYLETETLVTREFVTEILGIE | 3.01 |
| AFVVYLETETLVTREMVTEILGIE | 2.01 |
| AFVVYLETETLVTRENVTEILGIE | 1.96 |
| AFVVYLETETLVTREPVTEILGIE | 3.89 |
| AFVVYLETETLVTREQVTEILGIE | 2.67 |
| AFVVYLETETLVTRESVTEILGIE | 3.05 |
| AFVVYLETETLVTRETVTEILGIE | 2.66 |
| AFVVYLETETLVTREVVTEILGIE | 3.75 |
| AFVVYLETETLVTREWVTEILGIE | 3.37 |
| AFVVYLETETLVTREYVTEILGIE | 2.47 |
| AFVVYLETETLVTREAATEILGIE | 2.01 |
| AFVVYLETETLVTREADTEILGIE | 2.61 |
| AFVVYLETETLVTREAETEILGIE | 1.4 |

| Variant | protein stability index |
| --- | --- |
| AFVVYLETETLVTREAGTEILGIE | 2.21 |
| AFVVYLETETLVTREAHTEILGIE | 2.62 |
| AFVVYLETETLVTREAMTEILGIE | 4.75 |
| AFVVYLETETLVTREAPTEILGIE | 3.55 |
| AFVVYLETETLVTREAQTEILGIE | 3.14 |
| AFVVYLETETLVTREATTEILGIE | 3.01 |
| AFVVYLETETLVTREAYTEILGIE | 3.6 |
| AFVVYLETETLVTREAVAEILGIE | 2.74 |
| AFVVYLETETLVTREAVEEILGIE | 3.46 |
| AFVVYLETETLVTREAVFEILGIE | 2.48 |
| AFVVYLETETLVTREAVGEILGIE | 1.49 |
| AFVVYLETETLVTREAVHEILGIE | 4.07 |
| AFVVYLETETLVTREAVLEILGIE | 2.24 |
| AFVVYLETETLVTREAVNEILGIE | 4.21 |
| AFVVYLETETLVTREAVPEILGIE | 2.79 |
| AFVVYLETETLVTREAVQEILGIE | 3.84 |
| AFVVYLETETLVTREAVTCILGIE | 3.83 |
| AFVVYLETETLVTREAVTFILGIE | 2.17 |
| AFVVYLETETLVTREAVTHILGIE | 2.31 |
| AFVVYLETETLVTREAVTIILGIE | 2.11 |
| AFVVYLETETLVTREAVTKILGIE | 3.64 |
| AFVVYLETETLVTREAVTLILGIE | 3.65 |
| AFVVYLETETLVTREAVTNILGIE | 3.7 |
| AFVVYLETETLVTREAVTPILGIE | 2.44 |

| Variant | protein stability index |
| --- | --- |
| AFVVYLETETLVTREAVTQILGIE | 3.48 |
| AFVVYLETETLVTREAVTRILGIE | 3.43 |
| AFVVYLETETLVTREAVTSILGIE | 1.96 |
| AFVVYLETETLVTREAVTVILGIE | 3.19 |
| AFVVYLETETLVTREAVTWILGIE | 2.4 |
| AFVVYLETETLVTREAVTEALGIE | 2.66 |
| AFVVYLETETLVTREAVTEDLGIE | 1.6 |
| AFVVYLETETLVTREAVTEELGIE | 1.28 |
| AFVVYLETETLVTREAVTEFLGIE | 3.74 |
| AFVVYLETETLVTREAVTEHLGIE | 2.68 |
| AFVVYLETETLVTREAVTEKLGIE | 2.91 |
| AFVVYLETETLVTREAVTELLGIE | 4.11 |
| AFVVYLETETLVTREAVTEMLGIE | 3.81 |
| AFVVYLETETLVTREAVTENLGIE | 1.98 |
| AFVVYLETETLVTREAVTEPLGIE | 1.67 |
| AFVVYLETETLVTREAVTEQLGIE | 5.44 |
| AFVVYLETETLVTREAVTERLGIE | 3.48 |
| AFVVYLETETLVTREAVTEWLGIE | 2.75 |
| AFVVYLETETLVTREAVTEYLGIE | 1.56 |
| AFVVYLETETLVTREAVTEIAGIE | 3.48 |
| AFVVYLETETLVTREAVTEICGIE | 2.36 |
| AFVVYLETETLVTREAVTEIEGIE | 1.97 |
| AFVVYLETETLVTREAVTEIGGIE | 2.44 |
| AFVVYLETETLVTREAVTEIIGIE | 2.57 |

| Variant | protein stability index |
| --- | --- |
| AFVVYLETETLVTREAVTEINGIE | 2.64 |
| AFVVYLETETLVTREAVTEIPGIE | 2.34 |
| AFVVYLETETLVTREAVTEISGIE | 2.04 |
| AFVVYLETETLVTREAVTEIVGIE | 3.75 |
| AFVVYLETETLVTREAVTEIWGIE | 2.52 |
| AFVVYLETETLVTREAVTEIYGIE | 2.1 |
| AFVVYLETETLVTREAVTEILAIE | 3.71 |
| AFVVYLETETLVTREAVTEILDIE | 3.2 |
| AFVVYLETETLVTREAVTEILEIE | 2.82 |
| AFVVYLETETLVTREAVTEILFIE | 3.47 |
| AFVVYLETETLVTREAVTEILHIE | 3.32 |
| AFVVYLETETLVTREAVTEILKIE | 1.74 |
| AFVVYLETETLVTREAVTEILNIE | 2.33 |
| AFVVYLETETLVTREAVTEILPIE | 2.86 |
| AFVVYLETETLVTREAVTEILRIE | 3.49 |
| AFVVYLETETLVTREAVTEILSIE | 1.86 |
| AFVVYLETETLVTREAVTEILVIE | 2.04 |
| AFVVYLETETLVTREAVTEILYIE | 3.71 |
| AFVVYLETETLVTREAVTEILGAE | 1.8 |
| AFVVYLETETLVTREAVTEILGCE | 1.7 |
| AFVVYLETETLVTREAVTEILGDE | 1.42 |
| AFVVYLETETLVTREAVTEILGEE | 2.03 |
